Data reported in article PMC6524640 (2019).
No end group written: not given here.

Target: calmodulin (Homo sapiens, UniProt P0DP23)
Assay: NMR titration

Row | Kd [µM] | Binder
1 | 1440 | HFGKTGSSGPLQ (not fully specified) [CEACAM1 short form peptide SFWT]
2 | 760 | HFGKTGRASDQR (not fully specified) [CEACAM1 long form peptide LFWT]
